# Experiment: soluble on expression in E. coli; label from the status in PepcDB or PDB records
row,Sequence,soluble on expression in E. coli
1,MGSDKIHHHHHHMTTEFKGQTIPPMHTGGQGAVTGQRFLDRLRQNPPTLYIDGQRVADPTTHPSTRNMCQSLAGLYDLQFQEDLKETLTYEDGGKRYARSFMVPRTKDDLRLIAESHRIRANYGLGFLGRAPDYMNANVMAAGAGAEYFNGCSAAVPGDPKRDFAANMRRYYEYVQGNDLCLTHALTNPQVNRSKMASELPDPYIALGIVEETDEGVIVRGARMMATLPIADEILIFPSTVLKENADKSRYAMGFGIPTNTPGLSFQCREPIDVGRDPEDHPLSSRFDEQDAFVIFDDVLVPWERIFLLYDVELANKAYAGTDAVLHMAYQVVNLKIAKTEAFLGTAQSIVNAIGSGGFQHVQAKIAEIIIMLEIMKALEVAAREQAEPNDYGVMTPARAPLDAARNYYPANHARLPELLQLLGASGIIMMPSKADREGPLGPQIAKYLQTGNANADERLRLFRLAWDMSMSSFAGRQELYERYFFGDPVRMHSALYEVYDSSEAVARIGEFLQRK,not soluble
2,MGSDKIHHHHHHMTVSMEQLEAFVAAAEHGSFSAAGRALRKAQSAVSTQVSNLEEDLGLELFSRQGRNPTLTAAGERLLSEARLILDRREHLIGVAASFEAHVEKRLVVAIDELYPEHALGELFAEFAVHFPHVELELLFPMMEDVSRLVLDGKADIGVMWRQEDLPAELGFHTIGWVQLKLVCGRNHPLANAVVGWEDLKRHRQIMVTVRTEGMERHRLRVAAEVWWVESHWVILQILKQGIGWALIPAHILARSPVAQDLAIPALQFDDGAHPVALELVWHKQRPSGPAATWLRKRFATTKIDMVAE,not soluble
3,MGSDKIHHHHHHMTVTDLSKKPLLLLDHVTMQFGGLVAVDDFTNEIREGELVGLIGPNGAGKTTVFNVITGIYTPTKGRIVFNDIDITGLRPYQITHLGIARTFQNIRLFSDMTVLENVLVAQHHVLSNPDADRILVKHGKPRKGHGRFWFWRAVTKIGYLKKEKEMVERAKDLIKRVGLEKVMYEKASSLPYGEQRKLEIARALATEPKLILLDEPAAGMNPKETEDLMEFIKQIRKDFNLTVLLIEHDMKVVMGICERIIVMDYGRIIAEGTPKEIQNDPRVIEAYLGREWESV,not soluble
4,MGSDKIHHHHHHMTWDQSPLRGGEPIVSVQSPFEAIERGPKMEMRDIDFLIIGATKSATTWLQQSLQQDPGIFMPDPELHYFSRYYERGDEWYLEHFAGQEHRRLRGEKSNSYMDVPEAAERIKEKLPEARLIAHVRNPVDRAYSDYCMLYRRAEVGRDIAQYLDPRQGAGGRFLNGGLYYQQLQGYLDRFPAEQILVLLYEDLKIDARAQLARVRGFLGLEADVPLKPLAKKVKDKSEPVVNPTLRRLLRPLKPVAAPFRQNTGFKKLRSLIAGELQYAPLSHDLRARMTDYFAPETEKLGALVGRDLTDWLRNRSPEK,not soluble
5,MGSDKIHHHHHHMTWNTPKPGEWKSEELSKGRIIDYKAFNFVDGEGVRNSLYVAGCMFHCEGCYNVATWSFDAGIPYTQELEEQIMEDLAQPYVQGLTLLGGEPFLNTGILLPLLKRIRKELPEKDIWSWTGYTWEELMLETPDKLEMLNLLDILVDGRFDKSKKNLMLQFRGSSNQRIIDVPKSLASGQVVIWDKLNDGKQTYEQIDRDGLI,not soluble
6,MGSDKIHHHHHHMVCNLAIDAYYGCMADFSHILMTRPDFGDDDREWLHQLVADWQVIADLSFADLLLILQNGEGKYIIAEQCRPSTVMSLRAEDVVGNVVPESLCAELDAAMDSESVFRSSKLRTVGKAKVCNVYAPVRHNGKTLGLVVRETNMATRESNGRYESESISAGKQLYEMIPRGQFPYRNPVMNQRHNARVADGFIVLTVDGIVRYASPNAISCFRRLGSVSTMQGEYLSEIGTKLLHENDPVLETLPLVLSGKAAVDSELDANKAAVSMRSLPLMDANGRVGGIVLCRDVSELRRREKELQTKDATISEIHHRVKNNLQAVSALLRLQARKTKSEEVKKELKEAQRRVQTIAMVHEGLSQTADEIVDYDKVISNLLKMAVDLATMRDQHIDVDFVGKFGMMPAQDATPLSLVLTELITNSVEHGFEGRKEGHITISVGRGGNNLNVVVEDDGTGLADEEHDGMARSSGSGLGTQIINTFVTNDFGGTVHWEPRRGGGTRVVLDMKLCAAQDN,not soluble
7,MGSDKIHHHHHHMVDADQLRQWGRKVIDTERNALDNLYQYVDSSEFAKACQLILACTGKVIVMGMGKSGHIGNKISATLASTGTPAFFVHPGEASHGDLGVLSENDIVLAISNSGEASEILTLMPVIKRMGLPVIAVTGKPESNMAKHSVVHLCIEVPEEACPLGLAPTSSTTATLVMGDALAVALLQARGFTKDDFALSHPGGSLGRKLLLKVSDVMHKGDDLPLVAEDICITEALYEISKKGLGMTGVVNSQGMLVGIFTDGDLRRVIDAEINLRKTSISEVMTHGCVTVSEGILAAQALKVMDEKEINGLIVTDEQQKPIGALNMLDMVKAGVI,not soluble
8,MGSDKIHHHHHHMVDLDLTQIQKDILYALITLYKKKSGGSVKGEEIAELINRNPGTVRNQMQALRALGLVEGVPGPKGGYRPTSKAYELLSVTRPEESVVVPVVVNGNVMEELSAEEIVLPSISNPNICQARIRIIGDIKKINPGDSVIVGPTPVNEMMVYGKVVGRDDTENTIVLDIEKIVALPKDTVGEHMSSPIISVDAEESVVNAAKVLAENGIYCTPVQKNGKFVGIFTLDHVAKAVAEGKLNAKVEEVMRPKLVMVEKDTKIGEALRLMRDEKVRILLVTDKGEPVGVITDQKILTRLAPEQVET,not soluble
9,MGSDKIHHHHHHMVDQSQLRQWGCKVIDIEKSALDNLYQYVDSAEFAQACELILNCSGKVIVMGMGKSGHIGNKISATLASTGTPAFFVHPGEASHGDLGVLSDNDIILAISNSGESSEILALMPVIQRKAIPVIAMTGKPESTMARLAKIHLCIEVPEEACPLGLAPTSSTTATLVMGDAMAIALLQAKGFTRDDFAMSHPGGALGRKLLLKVSNVMHCGDDLPLVKHDICITDALYEISKKGLGMTAIIDEQNKLVGIFTDGDLRRVIDAQVNLRTTPIADVMTRNCVTITENVLAAQALQVMDSRNINGLIVIDKENHPVGALNMLDMVKAGVI,not soluble
10,MGSDKIHHHHHHMVHSTPTTFAGSKSARPRVAIAGFQHETNTFAPFGAPFDDFVRGGGWPAMTTGAAILDVFPPIEIPIGGFISAAKDTYELIPLVWAAAEPTSFVSDDAFERIAGMICDGIARAGPLDAIYLDLHGAMVVESYQDGEGELLRRVREIVGRDIPIMISLDFHANVTEAMVELSDGITIFRTYPHIDLADTGGRAFSLLEQRIRRGRPFIKAFRKTPFLIPLPAQCTDLEPCMSLYAGLQERVKGPVLNVDVALGFPLADIRECGPAVVAYGIDEVAVTAAADMQLSDMLEAEGRFHMSLLDVKEAVEHAARNGRKGSLIVLADVQDNPGCGGTSDTIGLLKGMVEGGLRNGVLGLLWDPETAEAAHTAGLGAELDVRLGGRYGYDSEPYLARVRVEALSDGVFKANGPCLGGVQVDLGRMARLLILNPGSSVQVVVSSVRFQCLDQDLLRAVGVEPRDQSVVAVKSAVHFRADFAPIAEEILTVESPGAHWCRNDILDYKNLRDGVRRMPISLATQPSEVKIAERRH,not soluble
11,MGSDKIHHHHHHMVKIKEGFKGERLVSLPEELLASYRREPLINNLYVRKIGFFPRVKYHFLQKEHGCDYAMLIYCTEGKGWYRILGKQYTVEKYQYIIIPPGIPYSFGADEGDPWTIYWLHFQGKLCDQFLPSHPVPVTISPNEYSRLQDRLRLFEEIYSSFSMGYIKEYMIYSSMCLYNFLASFIYLEQFRHIMIPSQKEYPFTARVIHYMRENIQQNLTLKELASYFKYSPSHFSALFFGETGVSPMNYFIRLKIQKACEYIELTNMKLNEIATHLGFEDAAYFSRTFTKVMGCSPSVYRKKEMEI,not soluble
12,MGSDKIHHHHHHMVTFSIRIISSDRIFLVAEVKALERVYVIGHKNPDTDSVCSAIGYAHFKNNVEKGKTFIPARSGDLTNESLFVLKYFGMNPPLHIETLEPTVEDLELKNPIFVTPDTSAYDVAMLMESRGIKNVPVVSKEKMIGVVTESNIARVYVRRLKIEPLVIHPVPFDQLVRILKAEVVCDYMKEKTVSGKVHIAVDALHVLLGKIEIGDVVIVGDNEPAQIALLEKGAKLMIVVNNAPVSNRVLEIAKEKNAAVLRVKFDAFSAAKLINLSLPVTLVMSKKFPTVTKKDTLEEVKEIVFTSKIRAAFVEDEKGRLCGVITRTDLLKDVRKKVILVDHNEITQAPEGVEKAEILEIIDHHRLGGLSTLNPVFFYNEPVGSTSTIVAEFFLKNGVKMEREIAGILLSGIVSDTLFFKLSTTTEKDRKMANFLADVAKLDLEKFAKKLLKEGMKIPEDVDPAELLKRDVKVYEMGEESFAVSQIMTSDFSTLLKEKERFMNTLKTLKGEFGVKHFFVLFTNPVEEASLLMMDGDQKLVEKAFNAEKKDGLFLLKGVMSRKKDFVPKIGEVLRRER,not soluble
13,MGSDKIHHHHHHMVVNALAVGCGLNVAPAQAHKFASNYHCFMVRRFDRTNAGRRLHFASAMTLTRHQDGEDASTGVSYLELADVLIRHGAQTNTDLKELWSRIVFNILVSNTDDHLRNHGYILIPGKGWRLSEAYDLNPVARSDGLKLNITENDNALDLELAREVAEYFRLGLTEADDIIANFRGIVSQWRIIAERLRLPGREQELMAEAFRGAI,not soluble
14,MGSDKIHHHHHHMVVNLEGKISKIGQNMKSSIIREILKFAADKDAISFGGGVPDPETFPRKELAEIAKEIIEKEYHYTLQYSTTEGDPVLKQQILKLLERMYGITGLDEDNLIFTVGSQQALDLIGKLFLDDESYCVLDDPAYLGAINAFRQYLANFVVVPLEDDGMDLNVLERKLSEFDKNGKIKQVKFIYVVSNFHNPAGVTTSLEKRKALVEIAEKYDLFIVEDDPYGALRYEGETVDPIFKIGGPERVVLLNTFSKVLAPGLRIGMVAGSKEFIRKIVQAKQSADLCSPAITHRLAARYLERYDLLEQLKPTIELYRRKRTVMLNALEEYFSDIPGVKWVKSEGGLFIWLTLPEGFDTWEMFEYAKRKKVFYVPGRVFKVYDEPSPSMRLSFCLPPDEKIVEGIKRLREVVLEYGKEKHLL,soluble
15,MGSDKIHHHHHHMWIRTHYFMAKSIHSYIKEKYKVSLQLDQLQYGSIKPDLLPKYWEGSHYYESCSGTWLAEVAQLLGEQKKRSIRNFSDKLGVILHFTADFFCSAHNLPNLRENMWEHLLYELKLDVAFRHFESFRGIQCLNYDDPYDLLTCCRQDYLSGQPSLERDIHYIYAASLSITDLLVTQALLPVAKPLMLLKDLPESS,not soluble
16,MGSDKIHHHHHHMYDAQAVQTLSSCLLRLKEGKGIGTLVSEDEADLPKVMTRLKQFDPSKNGLSINEIVHLANALIGEHMSATTIQNWTKREVRDIIGVPHRGKKYSINQAAIIYLLDDLKHLFSLEETRELLTIVFKNPNIDEDDLISPLDFYLVYTQHAETSGPIELTEKRLRRSLERINAYRPETVHVLQLCLYARRISHLTHEAKQRLQHVLQT,not soluble
17,MGSDKIHHHHHHMYIRPFDPWKSKLCTCPFKYTLNPYTGCDHACVYCYITSYIPNAFKVRPKKNLLIQVERELRKFDKRYIIAMSYSSDPYPTIEKELGITRKVLELFRRYDVRCLILTKSDIFERDIDILKELRCAVGVTVTTIDERKAKLLEPNAPLPKDRIRALKKAKKEGIPVYARVDPIIPFYTWEDFRKTVDALSFVSHITVSTLKLRPDIKARMRAKFPELMKKLEPLYTERYEGYAYLRKDMRFRILNEARKIIEGKGITFGSCREGYYSYPTCDGSHLVP,not soluble
18,MGSDKIHHHHHHMYKLVIIEDEHIIRKWLRYAIDYKALDILVIGEAKDGKEGAVLIKESQPDIVLTDINMPIMTAFDMFEVTKDQTYAKIILSGYADFPNARSAIHYGVLEFLTKPIEKAALWECLQTIIAKIEKQKGSNQKTDACVYIPLPQMTDQIPEVVKDILEWVHAHFQDKISTSRLAHDLGYSESYIYQNIKKHLQMPLSDYINQYRINQAIQLMQQEPDLMVYEIAQAVGIYDYRYFDRVFKKYLGQTVKAFKEEHFMKDTDRSKPC,not soluble
